Measurements: patent US20250269047A1

How the values were obtained:
[1] = molecular target: human B7-H3 naturally expressed on the surface of tumor cells (human) (UniProt Q5ZPR3); experiment: FACS on SKVO3 cells
[2] = molecular target: human B7-H3 naturally expressed on the surface of tumor cells (human) (UniProt Q5ZPR3); experiment: FACS on A431 cells

Sequence of human B7-H3 naturally expressed on the surface of tumor cells (human) (Q5ZPR3 29-534): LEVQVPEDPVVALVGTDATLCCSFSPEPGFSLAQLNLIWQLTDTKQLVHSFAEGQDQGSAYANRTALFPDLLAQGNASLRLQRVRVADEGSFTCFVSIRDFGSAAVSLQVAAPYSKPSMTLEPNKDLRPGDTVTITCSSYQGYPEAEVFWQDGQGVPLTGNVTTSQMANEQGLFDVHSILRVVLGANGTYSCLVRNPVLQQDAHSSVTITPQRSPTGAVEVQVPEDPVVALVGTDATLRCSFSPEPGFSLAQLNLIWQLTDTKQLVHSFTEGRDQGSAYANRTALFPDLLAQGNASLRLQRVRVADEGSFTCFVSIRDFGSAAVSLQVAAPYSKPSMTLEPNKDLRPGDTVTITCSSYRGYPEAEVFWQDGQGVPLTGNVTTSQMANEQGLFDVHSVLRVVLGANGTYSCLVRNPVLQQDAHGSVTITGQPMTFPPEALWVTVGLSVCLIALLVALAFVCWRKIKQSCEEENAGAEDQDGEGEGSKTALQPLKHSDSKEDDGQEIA

Row | Binder | EC50 [1] | EC50 [2]
1 | MGC-018 (antibody, human IgG1, kappa, V domains shown) VH: EVQLVESGGGLVKPGGSLRLSCAASGFTFSSYGMSWVRQAPGKGLEWVATINSGGSNTYYPDSLKGRFTISRDNAKNSLYLQMNSLRAEDTAVYYCARHDGGAMDYWGQGTTVTVSS VL: DIQMTQSPSSLSASVGDRVTITCRASESIYSYLAWYQQKPGKAPKLLVYNTKTLPEGVPSRFSGSGSGTDFTLTISSLQPEDFATYYCQHHYGTPPWTFGQGTRLEIKR | 0.0565 µg/mL | 
2 | Enoblituzumab (antibody, human IgG1, kappa, V domains shown) VH: EVQLVESGGGLVQPGGSLRLSCAASGFTFSSFGMHWVRQAPGKGLEWVAYISSDSSAIYYADTVKGRFTISRDNAKNSLYLQMNSLRDEDTAVYYCGRGRENIYYGSRLDYWGQGTTVTVSS VL: DIQLTQSPSFLSASVGDRVTITCKASQNVDTNVAWYQQKPGKAPKALIYSASYRYSGVPSRFSGSGSGTDFTLTISSLQPEDFATYYCQQYNNYPFTFGQGTKLEIKR | 0.191 µg/mL | 0.374 µg/mL
3 | ch9B11 (antibody, human IgG1, V domains shown) VH: EVQLQQSGPELVRPGVSVKISCKGSGYSFTDYAIHWVKQSHAMSLEWIGIINTYYGNTNYNQKFKGKATMTVDKSSSTAYMELARLTSADSAIYYCARSTTTATFYWYFDVWGAGTTVSVSS VL: DIVLTQSPVTLSVTPGDSVSLSCRASQSINNNLHWYQQKPHESPRLLIKYASQSISGIPSRFSGSGSGTDFTLSFNSVETEDFGMYFCQQSHSWPYTFGGGTKLEIK |  | 0.137 µg/mL

Further lines, results first:

Row | EC50 [1] | EC50 [2] | Binder
4 | 0.0441 µg/mL |  | hz17A3-14 (antibody, human IgG1, kappa, V domains shown) VH: EVQLVQSGAEVKKPGASVKVSCKASGYTFTDYALHWVRQAPGQGLEWMGLINTYSSNTNYNQKFKDRVTMTRDTSISTAYMELSRLRSEDTAVYYCARGITAVVGTRYYAMDYWGQGTLVTVSS VL: EIVLTQSPGTLSLSPGERATLSCRASQSISNNLHWYQQKPGQAPRLLIKYTSQSISGIPDRFSGSGSGTDFTLTISRLEPEDFAVYYCQQSYSWPLTFGGGTKVEIKR
5 |  | 0.101 µg/mL | ch17A3 (antibody, human IgG1, V domains shown) VH: QVQLQQSGPELVRPGVSVKISCKGSGYTFTDYALHWVKQSHAKSPQWIGLINTYSSNTNYNQKFKDKATMTVDKSSSTAYMELARLTSEDSAIYYCARGITAVVGTRYYAMDYWGQGTSVTVSS VL: NIVLTQSPTTLSVTPGDTVSLSCRASQSISNNLHWYQQRSHESPRLIIKYTSQNISGIPSRFSGSGSGTDFTLSINSVETEDFGMYFCQQSYSWPLTFGAGTKLELKR
6 |  | 0.203 µg/mL | ch10B4 (antibody, human IgG1, V domains shown) VH: EVQLQQSGPELVKPGASVKISCKTSGYTFTEYIMHWVKQSHGKSLEWIGGINPNNGGTTYNQKFKGKATLTVDKSSSTAYMELRSLTSEDSAVYYCARKGKDYFDWYFDVWGAGTTVTVSS VL: QIVLTQSPTIMSASPGEKVTMTCSASSSVSYMHWYQQKSGTSPKRWIYDTSKLASGVPARFSGSGSGTSYSLTISSMEAEDAATYYCQQWSSNPLTFGAGTKLELK
